Laboratory results: article doi:10.1101/2021.06.22.449413, “A Thioredoxin reductive mechanism balances the oxidative protein import pathway in the intermembrane space of mitochondria” (bioRxiv, 2021)
Substitutions are numbered along the chain they refer to.

B1: Thioredoxin 2 (Trx2), His-tagged (natural protein, S. cerevisiae, UniProt P22803 1-104, looked up)
chain: MVTQLKSASEYDSALASGDKLVVVDFFATWCGPCKMIAPMIEKFAEQYSDAAFYKLDVDEVSDVAQKAEVSSMPTLIFYKGGKEVTRVVGANPAAIKQAIASNV
notes: Thioredoxin 2 (Trx2), S. cerevisiae, cytosolic isoform; source: purified as 6His-tagged protein
B2: Mia40Δ290 His (S. cerevisiae Mia40 devoid of the N-terminal 290 residues) (domain or fragment, UniProt P36046 291-403, looked up)
chain: EINWDCPCLGGMAHGPCGEEFKSAFSCFVYSEAEPKGIDCVEKFQHMQDCFRKYPEHYAEQLKETSDDEEPQDKVKVNTIESAPNVSSAKENAAKKAEQSDVKKEPLNEESKP
notes: Mia40, S. cerevisiae, lacking the first 290 amino acids; core domain of about 15 kDa; also called core domain of Mia40; soluble functional domain of Mia40; source: purified as 6His-tagged protein
B3: Trx1 C30/33S double mutant, His-tagged (natural protein, S. cerevisiae, UniProt P22217 1-103, looked up)
chain: MVTQFKTASEFDSAIAQDKLVVVDFYATWSGPSKMIAPMIEKFSEQYPQADFYKLDVDELGDVAQKNEVSAMPTLLLFKNGKEVAKVVGANPAAIKQAIAANA
notes: Thioredoxin 1 (Trx1), S. cerevisiae, both active-site cysteines changed to serine; also called Trx1His C30/33S; TrxC30/33SHis; source: purified as 6His-tagged protein
B4: Thioredoxin 1 (Trx1), His-tagged, wild type (natural protein, S. cerevisiae, UniProt P22217 1-103, looked up)
chain: B3 chain with S30C, S33C
notes: Thioredoxin 1 (Trx1), S. cerevisiae, cytosolic isoform; cloned in PET24 vector; also called Trx1His wt; TrxHis; source: E. coli, purified (Ni-NTA); for the pull-down imported into isolated wt yeast mitochondria

Key:
[1] = target: B2; assay: cross-linking; glutaraldehyde 0.1 % final, equimolar purified proteins alone or together, 50 mM Hepes-KOH pH 7.4, on ice, 20 seconds to 10 minutes; SDS-PAGE and anti-His immunoblot; conditions: both partners purified
[2] = target: the molecule itself; assay: as above
[3] = target: B2; assay: ITC; 1 mM Mia40Δ290 His in the syringe, 0.1 mM TrxC30/33SHis in the cell; Kd calculated with the Origin software; conditions: both partners purified

binding result [1] | Kd [3] [µM] | Binder | binding result [2]
binds |  | B1 | binds
 |  | B2 | binds
 | 30 | B3 | binds
binds |  | B4 | binds
